Measured values: patent publication US20150232570A1 (ONCOMED PHARMACEUTICALS, published 2015)

B1: murine monoclonal antibody 52M51 (antibody, mouse IgG1, V domains shown)
VH: QVQLQQSGAELMKPGASVKISCKAAGYTMRGYWIEWIKQRPGHGLEWIGQILPGTGRTNYNEKFKGKATFTADTSSNTANMQLSSLTSEDSAVYYCARFDGNYGYYAMDYWGQGSSVTVSS
VL: QAVVTQESALTTSPGETVTLTCRSSTGAVTTSNYANWVQEKPDHLFTGLIGGTNNRAPGVPARFSGSLIGDKAALTITGAQTEDEAIYFCALWYSNHWVFGGGTKLTVLG
notes: Mouse antibody purified from hybridoma supernatant; also called 52M51 anti-NOTCH1 antibody; ATCC PTA-9405
B2: humanized antibody 52M51-H4L3 (antibody, human IgG2, lambda, V domains shown)
VH: QVQLVQSGAEVKKPGASVKISCKVSGYTLRGYWIEWVRQAPGKGLEWIGQILPGTGRTNYNEKFKGRVTMTADTSTDTAYMELSSLRSEDTAVYYCARFDGNYGYYAMDYWGQGTTVTVSS
VL: SQAVVTQEPSLTVSPGGTVTLTCRSSTGAVTTSNYANWFQQKPGQAPRTLIGGTNNRAPGVPARFSGSLLGGKAALTLSGAQPEDEAEYYCALWYSNHWVFGGGTKLTVLG
notes: Human IgG2 heavy chain and lambda (IgLC1) light chain; also called OMP-52M51; ATCC PTA-9549
B3: humanized antibody 52M51-H4L4 (antibody, human IgG2, lambda, V domains shown)
VH: QVQLVQSGAEVKKPGASVKISCKVSGYTLRGYWIEWVRQAPGKGLEWIGQILPGTGRTNYNEKFKGRVTMTADTSTDTAYMELSSLRSEDTAVYYCARFDGNYGYYAMDYWGQGTTVTVSS
VL: SQTVVTQEPSFSVSPGGTVTLTCRSSTGAVTTSNYANWYQQTPGQAPRTLIGGTNNRAPGVPDRFSGSILGNKAALTITGAQADDESDYYCALWYSNHWVFGGGTKLTVLG
notes: Human IgG2 heavy chain and lambda (IgLC1) light chain

Biological target: T1, recombinant human NOTCH1 protein (human, UniProt P46531 1426-1731, limits assumed)
T1 construct: NOTCH1 proteins'
T1 sequence (looked up): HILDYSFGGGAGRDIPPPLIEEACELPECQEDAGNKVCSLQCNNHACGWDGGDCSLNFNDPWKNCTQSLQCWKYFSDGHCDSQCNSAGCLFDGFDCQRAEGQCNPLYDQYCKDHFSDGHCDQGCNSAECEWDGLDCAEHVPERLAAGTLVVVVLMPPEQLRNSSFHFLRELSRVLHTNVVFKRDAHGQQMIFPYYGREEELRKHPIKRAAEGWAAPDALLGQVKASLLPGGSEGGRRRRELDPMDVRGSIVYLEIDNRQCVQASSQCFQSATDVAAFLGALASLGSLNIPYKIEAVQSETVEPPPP
Experiment: SPR (Biacore 2000), NOTCH1 protein amine-coupled to chip, IgG injected
Protocol: The affinities for human and mouse NOTCH11 were determined using a Biacore 2000 instrument. Briefly, recombinant human and mouse NOTCH1 proteins were immobilized on a CMS chip using standard amine based chemistry (NHS/EDC). Different antibody concentrations were injected over the protein surfaces and kinetic data were collected over time. The data was fit using the simultaneous global fit equation to yield dissociation constants (KD, nM) for each NOTCH1 protein (Table 2).

Binder	Kd
B1	2.86 nM
B2	4.33 nM
B3	7.35 nM
